Data reported in the supplement of paper PMC12042874.
± gives the uncertainty stated by the source.

Test: amyloid nucleation score (Sup35N fusion, yeast selection) (log enrichment); library NNK1; higher = more nucleation; inactive = no reads after selection
In short: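 Nucleation score: DiMSum log enrichment of output over input reads, centred on the mode score of non-aggregating sequences. Only sequences with at least 100 input reads were kept. Reads came from Illumina sequencing of plasmid inserts before and after 7 days of growth at 30°C without adenine and uracil, in psi-negative yeast expressing Sup35N fused to peptides of 20 random codons after 24 hours of induction with 100 μM copper sulfate.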

In order of falling amyloid nucleation score:
1. HSCEPVMLVLNMNR  8.159 ± 0.072
2. HFHNSCLYIGRVHIGHTLGV  7.826 ± 0.052
3. HNYVWCSPC  7.694 ± 0.07
4. HSNYFPKSLYVLGLFCSTVS  6.22 ± 0.065
5. HVHNYNFIFAVWIHP  5.87 ± 0.062
6. IGACVMQVNLCQSSGVSSYL  5.72 ± 0.062
7. IEIKTIFVSFLFCECKFCGY  5.63 ± 0.057
8. HCTRINVHFYNIYTVLVSFS  5.33 ± 0.073
9. HKSILVDVILSHFSSCSRCH  5.3 ± 0.074
10. HQNRDIIMMMSFCAGNTGYK  4.98 ± 0.12
11. HPQVTWGSRLAVNFCAWCYG  4.5 ± 0.054
12. IGCKCDIFVCNCISVCYVGA  4.3 ± 0.16
13. IAYNDSYMVKYCVREVLMDE  4.29 ± 0.13
14. HKIDINSVLLLKCVVYVGCL  4.12 ± 0.066
15. HAGFGFVSSCCYLHWLTGDR  3.98 ± 0.095
16. HLRKVGYSIYLFSR  3.83 ± 0.057
17. HRSVGSRECRSSSEFYVLR  3.77 ± 0.088
18. IINVLC  3.73 ± 0.056
19. HDNISLG  3.39 ± 0.12
20. HVLMLNW  3.05 ± 0.084
21. ICYIPADFVKPAMVNLYLAM  2.99 ± 0.11
22. ILEVCRHRVIIIRNYLSYCA  2.8 ± 0.24
23. IIVGVVNTRDYLYCRNFVYI  2.79 ± 0.1
24. HMNRVSGVMVVLSRGLAGMN  2.67 ± 0.23
25. ICITYL  2.56 ± 0.12
26. HLHFTILY  2.55 ± 0.28
27. HSVNYTLSQVNGSGLVFRAF  2.41 ± 0.12
28. ILKDVFIITVISSCSITSKL  2.37 ± 0.18
29. IFFSCQVGYSAIARDARWTR  2.04 ± 0.14
30. HCRNS  2 ± 0.3
31. ILSLNCFYRTWRLEMNKSYK  1.94 ± 0.52
32. IIEIFVDIRYHFMY  1.91 ± 0.38
33. HQVNSGDLSNMVLCLMLIRW  1.84 ± 0.19
34. HVRSWI  1.76 ± 0.76
35. IGFML  1.69 ± 0.32
36. ILSDVDVCGYLRFMFWSMSD  1.58 ± 0.49
37. HKFVRIDGEN  1.54 ± 0.84
38. HLYLRITTVG  1.49 ± 0.76
39. HMSHMLLQIYLWLVFWSSGV  1.42 ± 0.66
40. HICSRDVLLRQY  1.41 ± 0.8
41. IFLNKRSTSAWFSMLLLFLS  1.4 ± 0.14
42. GYRHRYQQTKGIVTHSMYFD  1.27 ± 0.9
43. ICVCKDVCGLYRCLLGTGGS  1.13 ± 0.57
44. IFYSLQLVTARSTEVMGDTP  1.1 ± 0.88
45. IINRNYI  1.1 ± 0.84
46. HRFDW  1.07 ± 0.48
47. HMLIFYSGLCKPSFVYYLLY  1.04 ± 0.58
48. HTFSRRTGAGGSAKLT  0.972 ± 0.6
49. IFATTIFLLGTRTKLMSG  0.971 ± 0.65
50. ILSWSNSGRMNHRPLVYERS  0.963 ± 0.43
51. IKWYAY  0.952 ± 0.68
52. HSDSNWIVDVLHSLYDKWLV  0.913 ± 0.5
53. HSSDLRAFLTDTFSRFYRIG  0.911 ± 0.8
54. HMNVPIDRSLGSFFFAKVMK  0.867 ± 0.2
55. HLSLVNFCMSVSLESWYEWM  0.819 ± 0.44
56. HECRWRTVYNQ  0.786 ± 0.93
57. HGSVRSLSYRLVSLYLSRMC  0.748 ± 0.45
58. IFRMAPKQCPSLWVASPHWI  0.743 ± 0.55
59. IFGTHFGTCFSGHAEEDTGE  0.724 ± 0.83
60. HILSSVLHSGVCMWTVITPY  0.72 ± 0.71
61. HTKTLAFHIILTIILRCMFL  0.713 ± 0.34
62. IGLFWSFVKKIEVIICVGML  0.665 ± 0.9
63. HKRAEKHNHFITWSIQSLRA  0.653 ± 0.33
64. IKDTGYYLHMIEQPDTLNLW  0.651 ± 0.53
65. IAVKQFSRPPVFYIYSSLEC  0.642 ± 0.62
66. IKWWKLCGVVRIGNNCLRYL  0.64 ± 0.72
67. IHLIDLTRVSAG  0.627 ± 0.63
68. IGFHSMDFEQYFCYFSVKTK  0.616 ± 0.75
69. HVNSRRVLSHFVFDCARIGT  0.592 ± 0.69
70. HPQYMLPT  0.569 ± 0.32
71. IGKSCFIFVTG  0.56 ± 0.43
72. IDFKGTKKLLSDRAPVGDST  0.549 ± 1
73. HPLVGQELKDWNNELYVHVL  0.534 ± 0.79
74. IGQLHFIEITNMREGHPFLA  0.53 ± 0.63
75. HLTKRGLSQTKRSAALQRVG  0.514 ± 1.2
76. IGGFASLGYGYIRDVIRVTS  0.493 ± 0.45
77. HALEKLDKFRFTAS  0.484 ± 0.64
78. HGLVNG  0.437 ± 0.52
79. GYTKILMRHSNFCMTK  0.428 ± 0.19
80. ILLRLGDVVRIGLVFVTSFG  0.421 ± 0.61
81. HNIKVAGQMYANKSRICTSM  0.412 ± 0.47
82. IKTAFMVMNNGKDVMSRSWG  0.402 ± 0.4
83. IFVVMQTIFMWLDSWADQSL  0.391 ± 0.35
84. HVPSFRFFFRDNLI  0.385 ± 0.46
85. ILHWEKRDSTVKILSLSIHW  0.385 ± 0.46
86. HGYSNNVARYWA  0.372 ± 1.4
87. ILTRVV  0.37 ± 1.1
88. HDASSFSLMRKFRCGC  0.333 ± 0.69
89. HIVVFKYVCYSHEAVYWRPE  0.305 ± 1.2
90. ILSFMYYDTHAPLKFAVQVK  0.296 ± 0.45
91. IKTNHKDNLWNNFNLYDKAH  0.233 ± 0.31
92. IASVWFRCFHRNRLVWSLRR  0.214 ± 0.44
93. ICTSSTKGRLCRSCPLASRL  0.205 ± 0.38
94. HTESRSSYGYVCPGYNLISF  0.2 ± 0.63
95. IHNNRVGVYCILNNTQRVE  0.2 ± 0.61
96. HHAFFDIPRVRGEYECFAGI  0.192 ± 0.25
97. HPRMCWVPVISIIPLLSVMA  0.185 ± 0.41
98. HYGAKCGGPRAWGRDTDR  0.156 ± 0.69
99. HMRMGLGRLVHLWYWPTRDT  0.153 ± 0.56
100. IAYKPLTWSSWEGSISIIRV  0.149 ± 0.4
101. IAVFWCFKMNWALMMRTKDM  0.13 ± 0.38
102. IESMVYITPCIEGIRWNWEK  0.122 ± 0.36
103. ILFFDVSSQGRTEDKVRNLG  0.088 ± 0.69
104. HNYVGDTLGVMSCWPTTRFP  0.087 ± 0.87
105. ILTDTSMGTSAVHRARQTLK  0.066 ± 0.48
106. HYAVGRARNLGCLDLSQ  0.064 ± 0.48
107. HITMRLFTPYLTYNMPMSLK  0.063 ± 0.24
108. ILSLS  0.038 ± 0.18
109. HESYVVRIYIFEDRRYLCEV  0.037 ± 0.6
110. HVVFTKMCSNTTET  0.026 ± 0.49
111. HRCPLTGFSSL  0.022 ± 0.45
112. IAGRRPALYRVWNSRCSLLN  0.014 ± 0.49
113. HGMIRWYSYTSCHSYKVSGH  -0.021 ± 0.33
114. HRTDRCVVMLHWPWIF  -0.025 ± 0.56
115. HRLDLSCSWNMNKVRGDWCS  -0.058 ± 0.27
116. ILLMSSGEDYSHTGAP  -0.06 ± 0.76
117. HGSECSWRLLLRHPLMGTSG  -0.089 ± 0.49
118. HHDMGSFFAVQSTSGTEGMG  -0.099 ± 0.37
119. HNWCYQNKGHVRGNKLCFRY  -0.112 ± 0.63
120. ILNGFTRYLR  -0.12 ± 0.36
121. HVCEGEVVR  -0.135 ± 0.37
122. HLDCGCRTFGLTWYWTKDCV  -0.143 ± 0.49
123. HSTLFGSKFWGKTQHNFDS  -0.151 ± 1.1
124. HCSSVQFPRTGVIEVALQKD  -0.17 ± 0.57
125. IGGHRYGVDKY  -0.194 ± 0.72
126. ILFRVVSRVGISRYGWKRVL  -0.241 ± 0.83
127. IFSLCSVLSSNIEECPS  -0.257 ± 0.8
128. ILCALMRFLVETLHLINFWK  -0.278 ± 0.61
129. IIIEVSQTDTV  -0.292 ± 0.79
130. IGYSGYY  -0.296 ± 0.41
131. IETWCVKWFH  -0.299 ± 0.32
132. ILVGTWSLGSRAVEGNNWDH  -0.357 ± 0.49
133. HLSALLANSNLNKM  -0.359 ± 0.52
134. IFSFNMQDN  -0.363 ± 1.2
135. HVGQAVSSCDSNLE  -0.365 ± 0.59
136. IGENCRWRMSSRCGFNGNDT  -0.37 ± 0.43
137. IASFVEERLSEIPYLATLGL  -0.385 ± 0.46
138. HRILRESRAGRF  -0.396 ± 0.36
139. IFLIMKNRTSILRPTGFLVS  -0.402 ± 0.49
140. HILYKRFFFGSCSSGCHL  -0.428 ± 0.47
141. HSFGKTFGDCYRRHSYLVNE  -0.437 ± 0.41
142. HLSYI  -0.455 ± 1.7
143. ILMLKH  -0.484 ± 0.68
144. IGDNVNGSLLEIW  -0.528 ± 0.32
145. ICFFGCQGGGPRLRQDRCRT  -0.53 ± 0.63
146. HYSNVKTGGKSGKWEIRDLE  -0.559 ± 0.35
147. HGHENVDWQKITDIGGRENC  -0.715 ± 1.9
148. HDREDWGDQSWYFILAWIFK  -0.745 ± 0.44
149. HVGRIPGEVYSLKFTGLGRY  -0.839 ± 0.95
150. HMSGFWM  -0.856 ± 1.7
151. HCWFRSWPWTISK  -0.913 ± 1.5
152. HFVAVFMFYGWPSWYSYSES  -0.93 ± 0.35
153. HINFIYRLRSFLQSCKNFSS  -1.23 ± 2.1
154. HSGSAE  -1.28 ± 1.3
155. HRQLWC  -1.96 ± 2.1
156. IDVFEITSKSFAARGAQFVH  -1.97 ± 1.3
157. ICSRTVKFYSSSF  -2.03 ± 2.4
158. HSLSFTNVVDTSLPLVLANF  -2.15 ± 2.4

In the case of HHVIRVDIMMFVVKSSELYN, the amyloid nucleation score is reported as “inactive”.
In the case of HMRTNKVFPCYPWPFTYTPP, the amyloid nucleation score is reported as “inactive”.
With HREMMWQGKRV the amyloid nucleation score was “inactive”.
For HRRNMAKC, the amyloid nucleation score was “inactive”.
For HSLGLANYFTSHEGLVGTF, the amyloid nucleation score was “inactive”.
In the case of HSRSCKSFLI, the amyloid nucleation score is reported as “inactive”.
With HTFHVL the amyloid nucleation score was “inactive”.
With IADPNRFFTLLNLPMQCREA the amyloid nucleation score was “inactive”.
In the case of IARLHT, the amyloid nucleation score is reported as “inactive”.
For IDMGSGTNFSTCKCATLIMI, the amyloid nucleation score was “inactive”.
In the case of IFYIYLRGLVMIVRRSMVIR, the amyloid nucleation score is reported as “inactive”.
For IGACLRQSLVISYDVIFMLL, the amyloid nucleation score was “inactive”.
In the case of IGDKYGYCKYGRYADGQVIS, the amyloid nucleation score is reported as “inactive”.
With ILIGRPQYIDRYMSSCVIIL the amyloid nucleation score was “inactive”.
